# ± gives the uncertainty stated by the source.
# Assay: protein stability index of a GFP-peptide fusion (yeast GPS) (PSI 1-4); higher = more stable; sorted into four equal gates, so the index is relative within each strain
# Conditions: pdr5∆
# How it was run: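 Peptides tiling yeast proteins in 17-residue segments were fused downstream of GFP, with Cherry expressed from the same plasmid. As a pooled library in yeast, mid-log cultures grown in leucine-free medium were sorted into four equal gates by GFP/Cherry fluorescence ratio. Gate plasmids were PCR-amplified and Illumina-sequenced, and barcodes linked reads to strains. Each peptide received a protein stability index equal to the sum of each gate's read frequency times its gate number.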
row,Sequence,protein stability index
1,ILQILDQDELVQPPLDK [SWP82],2.68 ± 0.11
2,ILRNGIDYLQRNDKTLE [POP1],3.01 ± 0.056

# Same assay, conditions: san1∆
row,Sequence,protein stability index
1,IDYKLRVLTQDGRVYIG [SMB1],1.67 ± 0.11
2,IEALYDDDTFSDREMAA [RPN2],1.57 ± 0.1
3,IEKMSTIVQLCKKKEMS [YIL149C/MLP2],1.59 ± 0.099
4,IERYPSKVTKKHGAKKV [RPL27B],3.43 ± 0.061
5,IESALKSKLDQDSTSEN [RPN2],2.87 ± 0.076
6,IETVMTQEQFVKRRRDM [SRB4],2.92 ± 0.1
7,IFALCIYNSTDSNSEIL [YML103C/NUP188],1.87 ± 0.14
8,IFFDEIDAVGGARFDDG [RPT1],3.24 ± 0.088
9,IFKIVQSRLMSTSYHLN [MED6],1.31 ± 0.096
10,IFVSILSDRANKNQDAF [ARP9],2.53 ± 0.066
11,IFWGIRLAKSTENEIPN [BRR2],1.18 ± 0.13
12,IGDTIADGPTMREITET [RPO21],3.52 ± 0.045
13,IGDVDGLIVNPVKVSGT [POP5],2.66 ± 0.035
14,IGDYILKSPVLSKLCVP [QCR7],1.56 ± 0.11
15,IGGLIPQWKRHLEEYGY [YCS4],1.9 ± 0.14
16,IGIDEGSDEAYVKDARK [RPC40],3.19 ± 0.051
17,IGIPVNKASLAQYEVLA [QCR2],1.92 ± 0.088
18,IGLDTQQVEGKLSQMIL [RPN6],3.04 ± 0.071
19,IGLRQFQQIQYENKQLY [POP1],2.92 ± 0.048
20,IGQAVQPKRNLSRYVKW [RPL8A],2.72 ± 0.047
21,IGQFLEPIDQNTGIVSS [RPT3],2.14 ± 0.17

row,Sequence,protein stability index
1,IGTNDLFQVESAPKISS [SIR4],2.63 ± 0.047
2,IGVIAGGGRVDKPLLKA [RPL2A],3.05 ± 0.11
3,IHGVLKNVDREVVSEAI [FAS2],3.3 ± 0.14
4,IIMQADLALKMGVPIYG [FAS2],1.79 ± 0.069
5,IINKLIHIQSKENYPWE [POP3],1.81 ± 0.068
6,IIPSRMGEAQTGANFDD [REC8],3.04 ± 0.25
7,IKEFVDDLKKDHIAIDW [DSN1],2.73 ± 0.076
8,IKENFFERIMILDPQVT [YJL039C/NUP192],1.29 ± 0.12
9,IKIVSDKKVLVKVQPEG [RPT6],2.85 ± 0.12
10,IKKIVADLKKGKDLSPA [QCR2],3.11 ± 0.26
11,IKTFYWLEQFLSCVKND [NUT1],1.18 ± 0.061
12,IKYEFNGIPLKSKERSS [YMR129W/POM152],1.52 ± 0.26
13,ILAAAHRDAYSGGSVNL [PRE2],2.79 ± 0.062
14,ILDSLPSVIHSSVEMLL [YDL116W/NUP84],1.39 ± 0.084
15,ILEEGSSGMGAFGGSGG [RPN10],3.04 ± 0.15
16,ILLYGPPGTGKTLCARA [RPT1],1.36 ± 0.19
17,ILNEVFTNPSIVKVFHG [RRP6],1.2 ± 0.18
18,ILNFLNQEDLFELVHHF [YML103C/NUP188],1.88 ± 0.22
19,ILNSYGVLKPDITFFGE [SIR2],3.21 ± 0.049
20,ILQILDQDELVQPPLDK [SWP82],2.62 ± 0.074
21,ILRNGIDYLQRNDKTLE [POP1],2.95 ± 0.054

# Same assay, conditions: ubr1∆
row,Sequence,protein stability index
1,IDYKLRVLTQDGRVYIG [SMB1],2.5 ± 0.048
2,IEALYDDDTFSDREMAA [RPN2],2.13 ± 0.054
3,IEKMSTIVQLCKKKEMS [YIL149C/MLP2],1.76 ± 0.051
4,IERYPSKVTKKHGAKKV [RPL27B],3.31 ± 0.059
5,IESALKSKLDQDSTSEN [RPN2],2.95 ± 0.1
6,IETVMTQEQFVKRRRDM [SRB4],2.49 ± 0.26
7,IFALCIYNSTDSNSEIL [YML103C/NUP188],1.95 ± 0.086
8,IFFDEIDAVGGARFDDG [RPT1],3.11 ± 0.089
9,IFKIVQSRLMSTSYHLN [MED6],2.31 ± 0.094
10,IFVSILSDRANKNQDAF [ARP9],2.87 ± 0.056
11,IFWGIRLAKSTENEIPN [BRR2],1.49 ± 0.064
12,IGDTIADGPTMREITET [RPO21],3.39 ± 0.059
13,IGDVDGLIVNPVKVSGT [POP5],2.64 ± 0.035
14,IGDYILKSPVLSKLCVP [QCR7],1.69 ± 0.058
15,IGGLIPQWKRHLEEYGY [YCS4],2.9 ± 0.057
16,IGIDEGSDEAYVKDARK [RPC40],3.5 ± 0.054
17,IGIPVNKASLAQYEVLA [QCR2],2.81 ± 0.043
18,IGLDTQQVEGKLSQMIL [RPN6],3.06 ± 0.056
19,IGLRQFQQIQYENKQLY [POP1],2.79 ± 0.047
20,IGQAVQPKRNLSRYVKW [RPL8A],2.66 ± 0.047
21,IGQFLEPIDQNTGIVSS [RPT3],2.85 ± 0.066

row,Sequence,protein stability index
1,IGTNDLFQVESAPKISS [SIR4],2.43 ± 0.035
2,IGVIAGGGRVDKPLLKA [RPL2A],2.98 ± 0.066
3,IGVLNNSSESDEEESND [RPN13],3.37 ± 0.095
4,IIMQADLALKMGVPIYG [FAS2],2.11 ± 0.044
5,IINKLIHIQSKENYPWE [POP3],2.41 ± 0.045
6,IIPSRMGEAQTGANFDD [REC8],2.74 ± 0.1
7,IKEFVDDLKKDHIAIDW [DSN1],2.75 ± 0.059
8,IKENFFERIMILDPQVT [YJL039C/NUP192],1.14 ± 0.05
9,IKIVSDKKVLVKVQPEG [RPT6],2.74 ± 0.07
10,IKTFYWLEQFLSCVKND [NUT1],1.13 ± 0.035
11,IKYEFNGIPLKSKERSS [YMR129W/POM152],2.98 ± 0.16
12,ILAAAHRDAYSGGSVNL [PRE2],2.89 ± 0.045
13,ILDSLPSVIHSSVEMLL [YDL116W/NUP84],1.44 ± 0.041
14,ILEEGSSGMGAFGGSGG [RPN10],3.28 ± 0.081
15,ILLYGPPGTGKTLCARA [RPT1],1.28 ± 0.12
16,ILNEVFTNPSIVKVFHG [RRP6],1.29 ± 0.05
17,ILNFLNQEDLFELVHHF [YML103C/NUP188],2.16 ± 0.072
18,ILNSYGVLKPDITFFGE [SIR2],3.31 ± 0.062
19,ILQILDQDELVQPPLDK [SWP82],2.48 ± 0.11
20,ILRNGIDYLQRNDKTLE [POP1],2.88 ± 0.051

# Reference: the supplement of paper PMC9732359
